Tests used:
[1] = target: T1, EV-D68 mature virion, strain US/MO/14-18947 (clade B) (enterovirus D68 strain US/MO/14-18947); assay: BLI
T1 chain 1: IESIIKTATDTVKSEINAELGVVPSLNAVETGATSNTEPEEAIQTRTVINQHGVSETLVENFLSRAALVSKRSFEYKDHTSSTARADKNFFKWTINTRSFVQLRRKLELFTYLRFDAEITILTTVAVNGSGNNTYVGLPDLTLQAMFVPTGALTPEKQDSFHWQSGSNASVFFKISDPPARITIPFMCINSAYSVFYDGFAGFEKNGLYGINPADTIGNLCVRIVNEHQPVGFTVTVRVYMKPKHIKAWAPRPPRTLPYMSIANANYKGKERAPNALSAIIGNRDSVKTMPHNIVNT
T1 chain 2: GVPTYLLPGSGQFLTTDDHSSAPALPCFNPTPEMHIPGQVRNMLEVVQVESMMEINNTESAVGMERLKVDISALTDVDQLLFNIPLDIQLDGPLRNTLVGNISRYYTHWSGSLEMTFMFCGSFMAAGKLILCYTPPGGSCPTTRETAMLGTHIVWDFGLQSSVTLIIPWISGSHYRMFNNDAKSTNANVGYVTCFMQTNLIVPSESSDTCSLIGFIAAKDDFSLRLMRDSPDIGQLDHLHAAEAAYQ
T1 chain 3: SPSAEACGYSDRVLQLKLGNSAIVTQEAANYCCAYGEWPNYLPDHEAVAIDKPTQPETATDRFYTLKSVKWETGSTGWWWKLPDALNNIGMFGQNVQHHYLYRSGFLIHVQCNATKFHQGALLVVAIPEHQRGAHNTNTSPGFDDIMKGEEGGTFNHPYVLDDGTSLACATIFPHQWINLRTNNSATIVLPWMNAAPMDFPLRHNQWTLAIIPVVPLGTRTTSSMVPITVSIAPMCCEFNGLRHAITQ
T1 chain 4: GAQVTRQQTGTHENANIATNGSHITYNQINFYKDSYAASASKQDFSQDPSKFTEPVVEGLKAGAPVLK

[2] = target: T1, EV-D68 mature virion, strain …; assay: BLI

B1: human-mouse chimeric MAb 2H12 (antibody, V domains shown)
VH: QVQLQQPGAELVMPGASVKMSCKASGYTFTDYWMHWVKQRPGQGLEWIGAIDTSDSYTTYNRKFKGKATLTVDESSSTAYMQLISLTSEDSAVYYCARGGGGNSPFAYWGQGTLVTVSA
VL: DIQMTQSPSSLSASLGERVSLTCRASQDIGSSLNWLQQEPDGTIKRLIYATSSLDSGVPKRFSGSRSGSDYSLTISSLESEDFVDYYCLQYASFPLTFGAGTKLELK
[1]
  Kd: 2.9 nM
[2]
  koff: 0.00055 s⁻¹

B2: human-mouse chimeric MAb 8F12 (antibody, V domains shown)
VH: QVQLQQPGTELVRPGASVKLSCKASGYSFTSYWMNWVKQRPGQGLEWIGMIHPSDSETRLNQRFKDKATLTVDKSSNTAYMQLSSPTSEDSAVYYCAREGYDYDGFAYWGQGTLVTVSA
VL: QIVLTQSPAAMSASPGEKVTMTCSASSSVIYMYWYQQKPGSSPRLLIYDTSNLASGVPVRFSGSGSGTSYSLTISRMEAEDAATYYCQQWSSFPYTFGGGTKLEIK
[2]
  koff: 0.0044 s⁻¹
